Values quoted from earlier work, collected in article PMC5818423.

What was measured:
CD26 = CD26 (UniProt P27487)
Adenosine A1 receptor = Adenosine A1 receptor (UniProt P30542)
Adenosine A1 receptor, sequence (P30542 whole entry): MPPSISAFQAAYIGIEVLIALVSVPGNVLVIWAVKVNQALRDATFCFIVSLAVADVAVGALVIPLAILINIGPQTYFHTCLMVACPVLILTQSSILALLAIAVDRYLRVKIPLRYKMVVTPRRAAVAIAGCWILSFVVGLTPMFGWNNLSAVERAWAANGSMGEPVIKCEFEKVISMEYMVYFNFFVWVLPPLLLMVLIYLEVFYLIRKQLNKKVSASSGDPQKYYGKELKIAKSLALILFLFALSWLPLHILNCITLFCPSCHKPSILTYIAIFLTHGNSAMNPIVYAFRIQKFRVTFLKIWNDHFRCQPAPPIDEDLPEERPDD

Adenosine deaminase, sequence (P00813 2-363): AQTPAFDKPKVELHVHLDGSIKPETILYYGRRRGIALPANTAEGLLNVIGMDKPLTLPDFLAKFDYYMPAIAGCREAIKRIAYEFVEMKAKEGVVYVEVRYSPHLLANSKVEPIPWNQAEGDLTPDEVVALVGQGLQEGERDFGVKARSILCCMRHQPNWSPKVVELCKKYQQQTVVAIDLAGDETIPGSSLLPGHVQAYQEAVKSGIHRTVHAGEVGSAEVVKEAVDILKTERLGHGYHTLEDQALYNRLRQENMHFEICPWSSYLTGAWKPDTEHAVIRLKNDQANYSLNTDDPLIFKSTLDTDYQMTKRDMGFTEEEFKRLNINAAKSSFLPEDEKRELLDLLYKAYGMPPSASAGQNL
CD26, sequence (P27487 39-766): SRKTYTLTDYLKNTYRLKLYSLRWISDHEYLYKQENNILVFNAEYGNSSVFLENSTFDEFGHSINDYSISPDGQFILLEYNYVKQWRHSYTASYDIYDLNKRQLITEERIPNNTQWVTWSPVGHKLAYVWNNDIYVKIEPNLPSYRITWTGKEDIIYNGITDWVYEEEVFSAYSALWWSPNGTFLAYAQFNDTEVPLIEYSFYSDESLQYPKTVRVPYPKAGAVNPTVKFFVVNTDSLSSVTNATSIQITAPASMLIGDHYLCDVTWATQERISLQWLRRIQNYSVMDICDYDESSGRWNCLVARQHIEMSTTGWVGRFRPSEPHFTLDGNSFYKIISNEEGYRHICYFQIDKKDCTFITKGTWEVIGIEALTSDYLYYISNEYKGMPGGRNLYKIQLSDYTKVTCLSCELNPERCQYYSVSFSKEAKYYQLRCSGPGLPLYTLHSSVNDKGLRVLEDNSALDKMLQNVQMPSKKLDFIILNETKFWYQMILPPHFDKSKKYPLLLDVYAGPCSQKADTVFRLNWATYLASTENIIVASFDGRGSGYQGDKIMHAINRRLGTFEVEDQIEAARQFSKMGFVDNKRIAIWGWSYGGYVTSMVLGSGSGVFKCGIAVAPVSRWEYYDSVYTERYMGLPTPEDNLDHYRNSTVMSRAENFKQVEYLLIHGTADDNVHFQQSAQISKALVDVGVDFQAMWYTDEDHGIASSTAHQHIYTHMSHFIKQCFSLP

**Q.** What does the source list for “Adenosine deaminase (from UniProt P00813)”?
**A.** Kd (CD26): 18 nM; Kd (Adenosine A1 receptor): 230 nM
